Measured values reported in PMC10957929.

Molecular target: T1, GST-DRG9Nip (Oryza sativa ssp. japonica cv. Nipponbare) (UniProt Q69P58)
T1 sequence: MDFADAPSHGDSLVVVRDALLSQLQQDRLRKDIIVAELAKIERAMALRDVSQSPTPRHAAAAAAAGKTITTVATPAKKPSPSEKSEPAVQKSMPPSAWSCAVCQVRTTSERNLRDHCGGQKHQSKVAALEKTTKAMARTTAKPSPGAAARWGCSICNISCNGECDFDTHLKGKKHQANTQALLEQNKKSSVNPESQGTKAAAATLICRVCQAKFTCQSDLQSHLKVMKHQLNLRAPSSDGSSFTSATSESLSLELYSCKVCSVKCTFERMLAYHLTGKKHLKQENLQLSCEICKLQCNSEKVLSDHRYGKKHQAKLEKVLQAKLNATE
Assay: EMSA
Conditions: 20 mM Hepes pH 7.5, 20 mM KCl2 (so in the source), 1 mM MgCl2, 10 mM ZnCl2, 5 mM DTT, 10% glycerol, 0.1% NP-40, room temperature, 1 h; 6% native PAGE, 0.5x TBE

“GGGCUCAAAUUAAUUAGCCAGUGAAAAAUCAAAUUACAGAGUUGCUUAAUUUUUUUACUAGUAGAACGCAACAGUAAAAAGAAUUAACAGCAGUGAAUUAUUAGUUAAUUAGCUAGGGAGUUGAAAUAGUUUAGCGGUCAUGCACUACUGAUUUUUAAUUAGUGCAGACAACGACCGCGUGUGUGUAUAUGCAUGUAUACCUUUUACUGUAUCUUCAGAUUGUGUAUAUAUAUCAUAUAUGUACAGGAAAAGAUUUAUAUAUCAUACAUAUUUUGUUGU [OsNCED4 3'-UTR RNA]” was tested, and the binding was “binds”.
